Laboratory results published in patent US20250207166.

How the values were obtained:
[1] = target: T1, chalcone synthase-like D (ChSD)
T1 chain: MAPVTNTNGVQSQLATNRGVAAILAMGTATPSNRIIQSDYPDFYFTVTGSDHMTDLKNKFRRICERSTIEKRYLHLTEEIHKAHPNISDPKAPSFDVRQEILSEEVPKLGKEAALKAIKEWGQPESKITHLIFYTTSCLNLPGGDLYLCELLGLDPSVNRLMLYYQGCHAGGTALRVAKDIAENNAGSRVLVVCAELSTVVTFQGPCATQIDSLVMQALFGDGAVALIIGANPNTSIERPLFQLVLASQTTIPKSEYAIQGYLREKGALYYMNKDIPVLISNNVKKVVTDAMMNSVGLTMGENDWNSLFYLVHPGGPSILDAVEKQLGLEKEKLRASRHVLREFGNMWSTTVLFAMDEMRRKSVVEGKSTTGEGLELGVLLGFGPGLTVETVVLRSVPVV

[2] = target: T2, chalcone synthase-like F (ChSF)
T2 chain: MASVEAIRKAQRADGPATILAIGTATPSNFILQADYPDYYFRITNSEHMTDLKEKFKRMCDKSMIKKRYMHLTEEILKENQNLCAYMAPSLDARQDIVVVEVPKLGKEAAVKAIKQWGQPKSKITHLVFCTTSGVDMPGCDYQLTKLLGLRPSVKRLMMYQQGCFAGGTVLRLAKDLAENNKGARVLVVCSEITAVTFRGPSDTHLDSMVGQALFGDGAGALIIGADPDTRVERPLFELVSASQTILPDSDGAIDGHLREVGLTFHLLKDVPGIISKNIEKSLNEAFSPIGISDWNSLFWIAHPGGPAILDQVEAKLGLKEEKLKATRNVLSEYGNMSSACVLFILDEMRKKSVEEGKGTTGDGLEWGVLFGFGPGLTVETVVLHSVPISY

[3] = target: T3, chalcone synthase-like B (ChSB)
T3 chain: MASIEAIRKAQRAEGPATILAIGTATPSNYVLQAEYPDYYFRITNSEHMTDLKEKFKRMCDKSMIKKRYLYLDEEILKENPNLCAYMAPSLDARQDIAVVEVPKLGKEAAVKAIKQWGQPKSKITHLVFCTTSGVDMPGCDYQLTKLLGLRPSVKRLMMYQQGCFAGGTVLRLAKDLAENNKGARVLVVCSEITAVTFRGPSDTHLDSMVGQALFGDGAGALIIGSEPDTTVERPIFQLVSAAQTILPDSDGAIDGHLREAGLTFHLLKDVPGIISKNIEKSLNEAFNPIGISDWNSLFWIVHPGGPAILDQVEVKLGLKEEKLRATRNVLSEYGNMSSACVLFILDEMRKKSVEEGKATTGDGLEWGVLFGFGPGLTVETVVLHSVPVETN

[4] = target: T4, chalcone synthase-like C (ChSC)
T4 chain: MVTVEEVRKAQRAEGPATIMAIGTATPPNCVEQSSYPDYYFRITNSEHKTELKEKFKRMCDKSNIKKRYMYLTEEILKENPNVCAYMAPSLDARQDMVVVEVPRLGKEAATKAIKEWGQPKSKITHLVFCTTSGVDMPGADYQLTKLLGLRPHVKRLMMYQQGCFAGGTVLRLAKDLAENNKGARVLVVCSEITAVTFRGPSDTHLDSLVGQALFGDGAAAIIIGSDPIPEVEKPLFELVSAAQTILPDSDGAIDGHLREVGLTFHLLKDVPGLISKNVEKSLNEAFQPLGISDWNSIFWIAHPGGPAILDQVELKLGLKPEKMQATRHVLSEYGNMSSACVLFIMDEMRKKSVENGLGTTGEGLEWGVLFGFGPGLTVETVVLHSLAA

[5] = target: T5, chalcone synthase-like A (ChSA)
T5 chain: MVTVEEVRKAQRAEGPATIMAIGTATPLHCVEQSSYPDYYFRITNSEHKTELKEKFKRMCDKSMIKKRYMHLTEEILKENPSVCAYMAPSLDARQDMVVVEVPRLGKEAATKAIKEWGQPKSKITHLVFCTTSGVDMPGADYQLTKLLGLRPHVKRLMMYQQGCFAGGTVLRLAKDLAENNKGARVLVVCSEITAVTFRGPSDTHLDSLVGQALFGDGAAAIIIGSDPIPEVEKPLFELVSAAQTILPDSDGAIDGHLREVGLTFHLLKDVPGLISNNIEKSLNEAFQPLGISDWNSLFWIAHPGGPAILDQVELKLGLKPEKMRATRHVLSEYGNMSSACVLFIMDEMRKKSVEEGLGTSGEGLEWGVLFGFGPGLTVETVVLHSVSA

B1: chalcone synthase-like E (ChSE) (protein)
chain: MGSLDQDFQPNQVPTIRADAATVLAIGTANPPNCIPQAEFADFYFRVTNSNHMTDLKKKFKRICEKSSIKKRYVHLTEKILNENPNICTFKEPSLTARQNIATEEIPKLGKEAALKAIEEWGRPKSEITHLVFCTIGGAEMPSADYQLVHLLGLNPSVKRFMLYYQGCFAGGSVLRLAKDLAENNVGARVLVVCAEVSIPYFHGPSEAHFDSNLIWQMLCGDGAGAAIVGSNPRKLIERPLFQLVSASQTIVPNSEGAIKGTLSEMGIIFNLVDKVPVLIGNNIENCLEEAFGSLGISNWNSLFWVAHPGGPAILNQIEEKLKLKEEKLKASRHVLSEYGNMSSACVFFILDEMRRRSKEEGKITTGDGLEWGVLFGFGPGLTVETIVLRSISTNEAH
QA-TriR-FRX-C9 amounts in N. benthamiana leaves, triads of ChSs co-infiltrated [1]: the triads containing ChSD consistently had higher QA-TriR-FRX-C9 amounts than those without | levels of product (QA-TriR-FRX-C9) in N. benthamiana leaves, ChS pairs co-infiltrated [1]: Pairing ChSE with ChSA, ChSC, CHSD or CHSF increased the levels of product made compared to either ChSE by itself or to the combination of all ChSs but ChSE | levels of product (QA-TriR-FRX-C9) in N. benthamiana leaves, ChS pairs co-infiltrated [2]: Pairing ChSE with ChSA, ChSC, CHSD or CHSF increased the levels of product made compared to either ChSE by itself or to the combination of all ChSs but ChSE | levels of product (QA-TriR-FRX-C9) in N. benthamiana leaves, ChS pairs co-infiltrated (repeat experiment) [3]: In a repeat experiment, ChSB paired with ChSE also led to a noticeable increase of product | levels of product (QA-TriR-FRX-C9) in N. benthamiana leaves, ChS pairs co-infiltrated [4]: Pairing ChSE with ChSA, ChSC, CHSD or CHSF increased the levels of product made compared to either ChSE by itself or to the combination of all ChSs but ChSE | levels of product (QA-TriR-FRX-C9) in N. benthamiana leaves, ChS pairs co-infiltrated [5]: Pairing ChSE with ChSA, ChSC, CHSD or CHSF increased the levels of product made compared to either ChSE by itself or to the combination of all ChSs but ChSE | levels of QA-TriR-FRX-C9 in N. benthamiana leaves (drop-out of one of six co-infiltrated ChS candidates) (other ChS candidates): The levels of QA-TriR-FRX-C9 were not affected except when ChSE was absent
